Experimental data published in publication PMC4508901 (The Journal of Cell Biology, 2015).

Molecular target: the molecule itself
Assay: cross-linking

B1: purified Egd2 (expressed in E. coli) (natural protein, S. cerevisiae, UniProt P38879 1-174, looked up)
chain: MSAIPENANVTVLNKNEKKARELIGKLGLKQIPGIIRVTFRKKDNQIYAIEKPEVFRSAGGNYVVFGEAKVDNFTQKLAAAQQQAQASGIMPSNEDVATKSPEDIQADMQAAAEGSVNAAAEEDDEEGEVDAGDLNKDDIELVVQQTNVSKNQAIKALKAHNGDLVNAIMSLSK
stoichiometry N: 2
